Data from patent publication US20150238603A1.

How the values were obtained:
Human CD38 (human) [1] = target: Human CD38 (human) (UniProt P28907); experiment: flow cytometry, QuantiBRITE system, RPMI8226 cells
Human CD38 (human) [2] = target: Human CD38 (human) (UniProt P28907); experiment: flow cytometry, QuantiBRITE system, NCI-H929 cells
Human CD38 (human) [3] = target: Human CD38 (human) (UniProt P28907); experiment: flow cytometry, QuantiBRITE system, LP1 cells

Sequence of UniProt P28907 (P28907 whole entry): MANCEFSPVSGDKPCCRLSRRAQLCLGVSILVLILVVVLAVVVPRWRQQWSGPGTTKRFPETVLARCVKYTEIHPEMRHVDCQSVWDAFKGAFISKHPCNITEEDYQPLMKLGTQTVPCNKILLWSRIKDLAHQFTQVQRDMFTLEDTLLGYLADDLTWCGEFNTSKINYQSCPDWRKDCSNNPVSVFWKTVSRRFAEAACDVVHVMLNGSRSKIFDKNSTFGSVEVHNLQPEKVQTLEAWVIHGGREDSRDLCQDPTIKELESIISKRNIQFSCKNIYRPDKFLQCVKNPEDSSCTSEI

- Antibodies Bound Per Cell (ABC) (antibodies bound per cell) (Human CD38 (human) [1]): > 677000
- Antibodies Bound Per Cell (ABC) (antibodies bound per cell) (Human CD38 (human) [2]): 195000
- Antibodies Bound Per Cell (ABC) (antibodies bound per cell) (Human CD38 (human) [3]): 125000
Substance: QuantiBRITE CD38-PE antibody (Becton Dickinson GmbH, Clone HB7, CAT #342371)
